Measurements: publication PMC6220203, “Cellular signaling and gene expression profiles evoked by a bivalent macrocyclic peptide that serves as an artificial MET receptor agonist” (Scientific Reports, 2018)

Biological target: MET receptor (endogenous, on EHMES-1 cells) (human (endogenous in EHMES-1)) (UniProt P08581)

MET receptor Tyr1234/1235 phosphorylation (cell-based enzyme-linked immunosorbent assay) in EHMES-1 cells against the concentration of aMD5-PEG11; bell-shaped profile: 120 nM
Substance: MET receptor (endogenous, on EHMES-1 cells) (from UniProt P08581 25-1390)
